Results as given in patent US20180244785A1 (MERRIMACK PHARMACEUTICALS, published 2018).

Legend:
Experiment in all cases: ELISA, scFv on coated FGFR-Fc
[1] = target: T1, recombinant human FGFR1c Fc fusion (human, UniProt P11362 141-376)
T1 construct: also called FGFR1IIIc; not shown: Fc part of the FGFR-Fc fusion
T1 sequence: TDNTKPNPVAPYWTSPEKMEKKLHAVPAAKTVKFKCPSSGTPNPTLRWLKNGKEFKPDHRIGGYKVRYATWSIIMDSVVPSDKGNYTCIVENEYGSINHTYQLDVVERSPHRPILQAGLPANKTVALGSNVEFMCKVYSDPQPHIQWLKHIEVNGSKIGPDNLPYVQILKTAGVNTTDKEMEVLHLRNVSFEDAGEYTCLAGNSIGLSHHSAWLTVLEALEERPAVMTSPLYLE
Method: (§1) To characterize the novel anti-FGFR antibodies, their relative ability to bind to each individual FGFR in vitro was compared. A solid phase-based ELISA was used to measure the relative binding of the candidate antibodies to immobilized recombinant human FGFR1c, FGFR2c, FGFR3c, and FGFR4. EC50 binding curves were generated for a subset of candidates (FIGS. 3A-3D, respectively; Table 1).
(§2) For the ELISA assay, the ability of each mAb to cross react with the […] FGF receptors was tested across a concentration curve in order to determine the relative binding across FGFR1-4. FGFR2IIIb was used as a negative control. Black 384-well Maxisorp plates were coated overnight with FGFR-Fc fusions in PBS to 1 ug/ml before washing and blocking with 75 ul/well Pierce Protein Free (PBS) Blocking Buffer for 1 hour at RT. Antibody dilutions were prepared freshly in 1% BSA- PBS+0.05% Tween20 and 25 ul of each antibody was added to wells in duplicate. Plates were incubated at RT for 2 hours, followed by addition of detection antibody at 50 ng/ml in 1% BSA PBS, 0.05% Tween20. ECL substrate (Pierce) was added and plates were read on the EnVision plate reader.

[2] = target: T2, recombinant human FGFR2c Fc fusion (human, UniProt P21802 148-377)
T2 construct: also called FGFR2IIIc; not shown: Fc part of the FGFR-Fc fusion
T2 sequence (P21802 148-377): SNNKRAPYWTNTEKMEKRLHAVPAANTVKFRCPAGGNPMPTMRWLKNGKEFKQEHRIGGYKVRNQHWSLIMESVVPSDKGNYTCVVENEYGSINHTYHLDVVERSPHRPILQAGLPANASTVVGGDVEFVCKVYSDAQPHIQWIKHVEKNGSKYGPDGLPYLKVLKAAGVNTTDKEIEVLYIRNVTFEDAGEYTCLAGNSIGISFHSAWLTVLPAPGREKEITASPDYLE
Method: as §1, §2

[3] = target: T3, recombinant human FGFR3c Fc fusion (human, UniProt P22607 141-372)
T3 construct: also called FGFR3IIIc; not shown: Fc part of the FGFR-Fc fusion
T3 sequence: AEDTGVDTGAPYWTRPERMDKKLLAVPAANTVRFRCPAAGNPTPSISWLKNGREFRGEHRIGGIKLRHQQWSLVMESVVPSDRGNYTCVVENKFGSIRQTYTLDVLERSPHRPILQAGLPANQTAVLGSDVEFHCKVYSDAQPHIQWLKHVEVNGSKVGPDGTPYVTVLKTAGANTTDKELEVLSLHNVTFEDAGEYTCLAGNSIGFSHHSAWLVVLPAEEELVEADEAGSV
Method: as §1, §2

[4] = target: T4, recombinant human FGFR4 Fc fusion (human, UniProt P22455 144-369)
T4 construct: 19 used; also called FGFR4c; not shown: Fc part of the FGFR-Fc fusion
T4 sequence: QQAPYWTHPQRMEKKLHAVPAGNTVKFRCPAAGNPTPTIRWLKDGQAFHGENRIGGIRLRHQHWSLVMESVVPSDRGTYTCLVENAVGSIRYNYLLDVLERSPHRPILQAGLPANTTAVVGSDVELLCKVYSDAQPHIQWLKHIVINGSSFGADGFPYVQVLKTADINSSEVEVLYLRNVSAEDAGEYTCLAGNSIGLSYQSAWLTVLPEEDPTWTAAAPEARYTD
Method: as §1, §2

[5] = target: T5, FGFR2IIIb Fc fusion (negative control) (human)
T5 construct: also called FGFR2b; not shown: Fc part of the FGFR-Fc fusion
T5 chain: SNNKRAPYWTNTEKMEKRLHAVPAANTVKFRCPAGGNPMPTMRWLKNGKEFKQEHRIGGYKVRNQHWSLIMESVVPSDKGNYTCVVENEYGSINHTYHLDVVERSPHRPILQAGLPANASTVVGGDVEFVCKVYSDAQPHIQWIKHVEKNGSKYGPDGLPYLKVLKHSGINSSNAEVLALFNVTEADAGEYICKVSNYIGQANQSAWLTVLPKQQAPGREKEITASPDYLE
Method: as §1, §2

Binder	EC50 [1] [nM]	EC50 [2] [nM]	EC50 [3] [nM]	EC50 [4] [nM]	EC50 [5] [nM]
Ab14 (scFv format) (scFv, also called FGF#24) scFv: EVQLVETGGGLIQPGGSLRLSCVASGFTVSSNYMSWVRQAPGKGLEWVSVIFSDGTTYYADSVKGRFTISRDNSKNTLYLQMNSLKTEDTAVYYCVAGPANGAYDIWGQGTMVTVSSASTGGGSGGGGSNIQMTQSPSILSASVGDRVTITCRASQSISNWLAWYQQKPGKAPKLLIFRASTLESGVPSRFSGSGSGAEFNLTISSLQPDDFATYYCQQYNVYSGTFGQGTKVEIKRTVAAPSHHHHHH	129	75.7	77.2	72	~557000
Ab15 (scFv format) (scFv, also called FGF#26) scFv: EVQLLESGGGVVQPGRSLRLSCAASGFTFSSYAMHWVRQAPGKGLEWVAVISYDGSNKYYADSVKGRFTISRDNSKNTLSLQMNSLRVEDTAIYYCVRGAGRGYTYGPDGFDIWGQGTMVTVSSASTGGGGSGGGGSGGGGSGGGGSDIVMTQTPLSLSVTPGQPASISCTSSRSLLHSDGKTYVYWYVQKSGQPPQLLIYELSNRFSGVPDRFSGSGSRTDFTLKISRVEAEDVGVYYCMQYIEAPLTFGGGTKVEIKRTVAAPSHHHHHH	0.293	0.247	0.326	0.312	~80000
Ab7 (scFv format) (scFv, also called FGF#51) scFv: QVQLVESGGGVVQPGRSLRLSCAASGFTFSGYAIHWVRQAPGKGLEWVALISYDGSNKYYADSAKGRFTISRDNSKNTLSLQMNSLRVEDTAIYYCVRGAGRGYTYGPDGFDIWGQGTMVTVSSASTGGGGSGGGGSGGGGSGGGGSDIVMTQTPLSSPVTLGQPASISCRSSESLVYRDGNTYLSWLHQRPGQSPRLLIYKVSNRFSGVPDRFSGSGAGTDFTLKISRVEAEDVGVYFCMQATQFPWTFGQGTKVEIKRTVAAPSHHHHHH	0.201	1.47	1.36	0.278	~96700
Ab3 (scFv format) (scFv, also called FGF#78) scFv: EVQLVESGGGVVQPGRSLRLSCAASGFTFSQYSMHWVRQSPGKGLEWVTLISFDGADKYYADSVKGRFTISRDNSNDTLFLHMNGLRVEDTAIYYCVRGAGRGYTYGPDGFDIWGQGTMVTVSSASTGGGGSGGGGSGGGGSGGGGSDIQLTQSPSSLSASVGDRVTITCRTSQTISRYLNWYQQQPGKAPKLLIYTATSLQSGVPSRFSGSGSGTDFTLTIGGLQPEDFAIYFCQQTYSAPLTFGGGTKVEIKRTVAAPSHHHHHH	0.319	0.62	2.02	1.07	~108000
